Test results as given in paper PMC4117426.

Target: T1, 6×His-SlmA (E. coli), P0C093
T1 chain: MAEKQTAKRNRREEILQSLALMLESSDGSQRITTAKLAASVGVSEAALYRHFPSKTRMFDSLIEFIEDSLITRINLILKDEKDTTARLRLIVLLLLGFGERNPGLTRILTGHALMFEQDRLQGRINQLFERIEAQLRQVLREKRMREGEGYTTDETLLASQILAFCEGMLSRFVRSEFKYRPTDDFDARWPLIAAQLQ
Assay: BLI; biotinylated SBS17-30mer (50 nM) on streptavidin tips, loaded with 4 µM SlmA or SlmA mutant; FtsZ or variants (4 µM, preincubated with 1 mM GDP) or peptides (up to 320 µM) in solution; 1× Pol buffer, room temperature
Details: remark: other sources report otherwise

Q: For DYLDIPAFLRKQAD [FtsZ C-terminal tail peptide (Ztail-WT)], which Kd is on record?
A: Its Kd is 81 µM.
